System: MK2-activating peptide (transduction domain YARAAARQARA coupled to a Kaposin-derived region)

Which “HSP27 phosphorylation in RPMEC after MK2 siRNA knock-down against control siRNA” value does the source give for “MK2 (endogenous, in rat pulmonary endothelial cells, RPMEC)” here?
The value was “MK2 siRNA reduced the level of MK2 in the cells and blocked the activity of the MK2-activating peptide”.

And the “phosphorylated HSP27 by immunoblot, time course at 50 µM peptide, RPMEC” value?
Its value is “significant MK2 activation was observed by 15 minutes of treatment”.

From patent publication US20140256614
